{"source": "patent EP3460067A1", "about": "“PROCESS FOR ENZYMATIC OXIDATION OF LINEAR CARBOHYDRATES” (Technische Universität München, priority 2017, dated 2019)", "molecules": {"B1": {"name": "SpsADH (Sphingomonas sp. A1) (protein)", "chain": "MFSDLKGKRILITGSTEGIGMATAIELARYGAVVGLNSHVDPADPALLLGKLREAGGDGAFFRADITKTAECQRLVSAFVERFDGIDVLINNAGGLAGRSNLENIDDAFYDRVMDLNGRSVLMMTKFAIPHLRASAKASGTTSAVISTGSIAAREGGGIGAGVYAASKAWLHDIHRNWVKEFTKDSIRFNIVAPGTVDTAFHADKSDELKTRIANSIPMGRFGTVQELAPAYVFFASHAASGYITGQILDVNGGQICP"}}, "key": {"SpsADH": {"target": "T1, SpsADH (Sphingomonas sp. A1, UniProt A0A075B5H4)", "T1 sequence (A0A075B5H4 1-258)": "B1 chain", "test": "photometric SpsADH enzyme assay, oxidation of substrates (NAD+/NADH at 340 nm)", "format": "biochemical, Sphingomonas species A1", "method": "The activity of SpsADH was determined photometrically by monitoring the increase/decrease of NAD^+/NADH at 340 nm using the Infinite 200 pro photometer (Tecan Group Ltd.). Reactions were performed at 25 C in triplicate using 96-well microtiter plates. For determination of the substrate scope, the reaction mixtures contained 50 mM ammonium bicarbonate, pH 7.9, 0.3 mM NADH (or 1 mM NAD^+), a defined alcohol, aldehyde, aldonic acid or uronic acid as substrate and the purified enzyme. One unit of enzyme activity was defined as the amount of protein that reduces (oxidizes) 1 µmol of NAD(H)/min at […]. Calculation of Michaelis-Menten kinetics for determination of Km and vmax was done with Sigma-Plot 11.0 (Systat Software)."}, "[1]": {"substrate": "O=C(O)[C@@H](O)[C@@H](O)[C@H](O)[C@H](O)CO", "test": "purified protein, by the assay type", "conditions": "other: oxidation of C5/C6 aldonates by SpsADH (Table 3); pH 7.9"}, "[2]": {"substrate": "O=C(O)[C@@H](O)[C@H](O)[C@H](O)[C@H](O)CO", "test": "purified protein, by the assay type", "conditions": "other: oxidation of C5/C6 aldonates by SpsADH (Table 3); pH 7.9"}, "[3]": {"substrate": "O=C(O)[C@H](O)[C@@H](O)[C@H](O)[C@H](O)CO", "test": "purified protein, by the assay type", "conditions": "other: oxidation of C5/C6 aldonates by SpsADH (Table 3); pH 7.9"}, "[4]": {"substrate": "O=C(O)[C@H](O)[C@H](O)[C@H](O)[C@H](O)CO", "test": "purified protein, by the assay type", "conditions": "other: oxidation of C5/C6 aldonates by SpsADH (Table 3); pH 7.9"}, "[5]": {"substrate": "O=C(O)C(=O)C[C@H](O)[C@H](O)CO", "test": "photometric SpsADH enzyme assay, oxidation of substrates (NAD+/NADH at 340 nm)", "format": "biochemical, Sphingomonas species A1", "conditions": "other: oxidation of KDG by SpsADH, 50 mM ammonium bicarbonate pH 7.9, NAD+, 25 C", "procedure": "(§1) The activity of SpsADH was determined photometrically by monitoring the increase/decrease of NAD^+/NADH at 340 nm using the Infinite 200 pro photometer (Tecan Group Ltd.). Reactions were performed at 25 C in triplicate using 96-well microtiter plates. For determination of the substrate scope, the reaction mixtures contained 50 mM ammonium bicarbonate, pH 7.9, 0.3 mM NADH (or 1 mM NAD^+), a defined alcohol, aldehyde, aldonic acid or uronic acid as substrate and the purified enzyme. One unit of enzyme activity was defined as the amount of protein that reduces (oxidizes) 1 µmol of NAD(H)/min at 37 °C. Calculation of Michaelis-Menten kinetics for determination of Km and vmax was done with Sigma-Plot 11.0 (Systat Software)."}, "[6]": {"substrate": "O=C(O)[C@@H](O)[C@H](O)[C@H](O)CO", "test": "photometric SpsADH enzyme assay, oxidation of substrates (NAD+/NADH at 340 nm)", "format": "biochemical, Sphingomonas species A1", "conditions": "other: oxidation of C5/C6 aldonates by SpsADH (Table 3); pH 7.9", "procedure": "as §1"}, "[7]": {"substrate": "O=C(O)[C@H](O)[C@H](O)[C@H](O)CO", "test": "photometric SpsADH enzyme assay, oxidation of substrates (NAD+/NADH at 340 nm)", "format": "biochemical, Sphingomonas species A1", "conditions": "other: oxidation of C5/C6 aldonates by SpsADH (Table 3); pH 7.9", "procedure": "as §1"}}, "data": [{"molecule": "OC[C@@H](O)[C@@H](O)[C@H](O)[C@@H](O)CO", "note": "[D-sorbitol]", "values": [{"measurement": "activity", "setting": "SpsADH; oxidation by SpsADH, polyol", "value": 1.7, "unit": "mU/mg"}, {"measurement": "vmax", "setting": "SpsADH; oxidation of D-sorbitol to L-gulose by SpsADH", "value": "6.2 ± 0.1", "unit": "mU/mg"}]}, {"molecule": "O=C(O)C(=O)C[C@H](O)[C@H](O)CO", "note": "[KDG, 2-keto-3-deoxy-D-gluconate]", "values": [{"measurement": "oxidative activity", "setting": "SpsADH; native substrate KDG, result in words", "value": "very low oxidative activity"}]}, {"molecule": "B1", "values": [{"measurement": "Km", "setting": "[1]", "value": "18.3 ± 1.3", "unit": "mM"}, {"measurement": "Vmax", "setting": "[1]", "value": "0.52 ± 0.01", "unit": "U/mg"}, {"measurement": "kcat", "setting": "[1]", "value": "0.26 ± 0.00", "unit": "s⁻¹"}, {"measurement": "kcat/Km", "setting": "[1]", "value": "13.9 ± 1.2", "unit": "M⁻¹ s⁻¹"}, {"measurement": "Km", "setting": "[2]", "value": "27.0 ± 4.2", "unit": "mM"}, {"measurement": "Vmax", "setting": "[2]", "value": "0.32 ± 0.01", "unit": "U/mg"}, {"measurement": "kcat", "setting": "[2]", "value": "0.16 ± 0.01", "unit": "s⁻¹"}, {"measurement": "kcat/Km", "setting": "[2]", "value": "5.8 ± 1.2", "unit": "M⁻¹ s⁻¹"}, {"measurement": "Km", "setting": "[3]", "value": "15.7 ± 1.6", "unit": "mM"}, {"measurement": "Vmax", "setting": "[3]", "value": "1.28 ± 0.04", "unit": "U/mg"}, {"measurement": "kcat", "setting": "[3]", "value": "0.63 ± 0.02", "unit": "s⁻¹"}, {"measurement": "kcat/Km", "setting": "[3]", "value": "40.0 ± 5.4", "unit": "M⁻¹ s⁻¹"}, {"measurement": "Km", "setting": "[4]", "value": "17.1 ± 2.4", "unit": "mM"}, {"measurement": "Vmax", "setting": "[4]", "value": "0.28 ± 0.01", "unit": "U/mg"}, {"measurement": "kcat", "setting": "[4]", "value": "0.14 ± 0.01", "unit": "s⁻¹"}, {"measurement": "kcat/Km", "setting": "[4]", "value": "8.1 ± 1.4", "unit": "M⁻¹ s⁻¹"}, {"measurement": "Km", "setting": "[5]", "value": "20.9 ± 3.16", "unit": "mM"}, {"measurement": "Vmax", "setting": "[5]", "value": "1.81 ± 0.009", "unit": "U/mg"}, {"measurement": "kcat", "setting": "[5]", "value": "0.89 ± 0.047", "unit": "s⁻¹"}, {"measurement": "kcat/Km", "setting": "[5]", "value": "42.5 ± 8.68", "unit": "M⁻¹ s⁻¹"}, {"measurement": "Km", "setting": "[6]", "value": "25.6 ± 2.6", "unit": "mM"}, {"measurement": "Vmax", "setting": "[6]", "value": "0.01 ± 0.00", "unit": "U/mg"}, {"measurement": "kcat", "setting": "[6]", "value": "0.01 ± 0.00", "unit": "s⁻¹"}, {"measurement": "kcat/Km", "setting": "[6]", "value": "0.2 ± 0.0", "unit": "M⁻¹ s⁻¹"}, {"measurement": "Km", "setting": "[7]", "value": "16.9 ± 1.4", "unit": "mM"}, {"measurement": "Vmax", "setting": "[7]", "value": "0.01 ± 0.00", "unit": "U/mg"}, {"measurement": "kcat", "setting": "[7]", "value": "0.01 ± 0.00", "unit": "s⁻¹"}, {"measurement": "kcat/Km", "setting": "[7]", "value": "0.3 ± 0.1", "unit": "M⁻¹ s⁻¹"}]}]}
